The results in this text go back to US7629132B2, “Goodpasture antigen binding protein” (priority 1999, dated 2009).

One data set deals with T1, rGPBP (Homo sapiens, UniProt Q9Y5P4).
T1 construct: made in house; host or cells: Pichia pastoris GS115
T1 sequence (Q9Y5P4 1-624): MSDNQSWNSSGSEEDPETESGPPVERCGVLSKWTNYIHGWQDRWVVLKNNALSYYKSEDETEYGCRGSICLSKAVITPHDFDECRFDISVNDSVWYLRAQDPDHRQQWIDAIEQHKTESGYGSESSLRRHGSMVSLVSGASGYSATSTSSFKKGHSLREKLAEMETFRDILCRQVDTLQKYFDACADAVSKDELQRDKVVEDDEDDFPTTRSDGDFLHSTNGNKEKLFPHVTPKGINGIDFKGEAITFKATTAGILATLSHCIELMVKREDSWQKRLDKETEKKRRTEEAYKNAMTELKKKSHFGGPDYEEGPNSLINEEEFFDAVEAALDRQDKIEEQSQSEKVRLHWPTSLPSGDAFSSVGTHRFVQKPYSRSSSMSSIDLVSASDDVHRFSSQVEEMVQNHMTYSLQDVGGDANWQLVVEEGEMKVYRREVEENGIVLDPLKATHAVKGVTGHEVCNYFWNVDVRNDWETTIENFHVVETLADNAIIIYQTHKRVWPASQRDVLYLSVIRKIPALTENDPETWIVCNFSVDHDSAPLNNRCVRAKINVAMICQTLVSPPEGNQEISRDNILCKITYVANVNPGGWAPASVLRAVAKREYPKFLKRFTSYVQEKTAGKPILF
The experiment in a line: In vitro phosphorylation of GP antigen-derived peptides by rGPBP. The following applies: about 200 ng yeast rGPBP, 10 nmoles peptide, γ-32P-ATP. The data set is classed as biochemical. On the procedure: FIG. 5. Recombinant GPBP contains a serine/threonine kinase that specifically phosphorylates the N-terminal region of the human GP antigen. To assess phosphorylation, approximately 200 ng of yeast rGPBP was incubated with [γ]^32P-ATP in the absence (A and B) or presence of GP antigen-derived material (C). In (A), the mixture was subjected to reducing SDS-PAGE (10% gel) and autoradiographed. In (B), the mixture was subjected to ^32P-phosphoamino acid analysis by two-dimensional thin-layer chromatography. The dotted circles indicate the position of ninhydrin stained phosphoamino acids. In (C), the phosphorylation mixtures of the indicated GP-derived material were analyzed by SDS-PAGE (15% gel) and autoradiography (GPpep1 and GPpep1Ala^9) or immunoprecipitated with Mab 17, a monoclonal antibody that specifically recognize GP antigen from human and bovine origin, and analyzed by SDS-PAGE (12.5%) and autoradiography (rGP, GP). The relative positions of rGPBP (A), rGP antigen and the native human and bovine GP antigens (C) are indicated by arrows. The numbers and bars refer to molecular weight markers as in previous Figures. […]

Data set [1] is described as follows: Loss of PKA-inducing activity of the peptide on storage. It is filed as physicochemical. The following applies: long storage at low temperatures.
The next data set has as its target T2, GPBP (Homo sapiens, UniProt Q9Y5P4).
T2 construct: made in house; host or cells: Pichia pastoris GS115
T2 sequence (Q9Y5P4 1-624): T1 sequence (Q9Y5P4 1-624)
As to the kind of experiment: In vitro GPBP autophosphorylation in the presence of GPΔIII-derived peptide. It is filed as biochemical. The settings on record: about 200 ng rGPBP, 150 μM ATP, 5 nmol peptide. As to the method:
FIG. 20. Regulation of the GPBP by the C terminal region of GPΔIII. About 200 ng of rGPBP were in vitro phosphorylated with 150 μM ATP in the absence (lane 1) or in the presence of 5 nmol of GPΔIII-derived peptide synthesized either using Boc-(lane 2) or Fmoc-(lane 3) chemistry. The reaction mixtures were subjected to SDS-PAGE, transferred to PVDF and autoradiographed to asses autophosphorylation, and subsequently blotted with anti-FLAG monoclonal antibodies (Sigma) to determine the amount of recombinant material present (Western).
In vitro phosphorylation assays-About 200 ng of rGPBP were incubated overnight at 30° C. in 25 mM β-glycerolphosphate (pH 7.0), 0.5 mM EDTA, 0.5 mM EGTA, 8 mM MgCl2, 5 mM MnCl2, 1 mM DTT and 0.132 μM γ-^32P-ATP, in the presence or absence of 0.5-1 μg of protein substrates or 10 nmoles of synthetic peptides, in a total volume of 50 μl.
(§1) Phosphorylation studies. Phosphorylation studies were essentially done as described above (see also 3 and 12). In some experiments, the substrates were in-blot renatured and then, phosphorylated for 30 min at room temperature by overlaying 100 μl of phosphorylation buffer containing 0.5 μg of rGPBP. Digestion with V8 endopeptidase and immunoprecipitation were performed as described in (3).

For another data set, the target named is PKA (Homo sapiens, UniProt P17612). As to the kind of experiment: PKA phosphorylation of native GP antigen (α3(IV)NC1 domain or hexamer) in the presence of C-terminal peptides. The data set is classed as biochemical. The settings on record: 0.1 μM ATP, 10 nmol peptide, purified α3(IV)NC1 domain or hexamer. As to the method: FIG. 16. Phosphorylation of GP alternative splicing products by PKA. In left panel, equimolecular amounts of rGP (lanes 1), rGPΔV (lanes 2), rGPΔIII (lanes 3) or rGPΔIII/IV/V (lanes 4), equivalent to 500 ng of the GP were phosphorylated at the indicated ATP concentrations. One-fifth of the total phosphorylation reaction mixture was separated by gel electrophoresis and transferred to PVDF, autoradiographed (shown) and the proteins blotted with M3/1, a specific monoclonal antibody recognizing all four species (shown) or using antibodies specific for each individual C-terminal region (not shown). […] Right panel: purified α3(IV)NC1 domain or hexamer was phosphorylated with PKA and 0.1 μM ATP in the absence (lanes 1) or in the presence of 10 nmol of peptides representing the C-terminal region of either GPΔIII (lanes 2) or GPΔIII/IV/V (lanes 3). Where indicated the phosphorylation mixtures of purified α3(IV)NC1 domain were V8 digested and immunoprecipitated with antibodies specific for the N terminus of the human α3(IV)NC1 domain (3). Bars and numbers indicate the position and sizes (kDa) of the molecular weight markers.
as §1

In the case of “KGKRGDAGSPATWTTRGFVFT [GPpep1Ala^9, mutant Ser9 to Ala9 of GPpep1, residues 3-23 of the human GP antigen]”, the “32P incorporation by rGPBP, compared with GPpep1” value in the data set with rGPBP is recorded as “lower ^32P incorporation”.
For QRAHGQDLDALFVKVLRSP [Boc-based peptide], the “stability of biological activity (ability to induce PKA) on storage” value in data set [1] is “loses its ability to induce PKA upon long storage at low temperatures”. Besides, the “effect on GPBP autophosphorylation” value with GPBP (listed as Boc-based synthetic peptides) is given as “positively influenced GPBP autophosphorylation”.
As for “QRAHGQDLDALFVKVLRSP [Fmoc-based peptide]”, in the data set with PKA (listed as Fmoc-based peptides), the “induction of GP antigen phosphorylation by PKA” value (“induction” below) is listed as “not”. In addition, the “effect on GPBP autophosphorylation” value in the data set with GPBP is on record as “inhibited GPBP autophosphorylation”.
With “QRAHGQDLDALFVKVLRSP [GPΔIII derived peptide, synthetic peptide representing the C-terminal region of GPΔIII, chemistry not specified at the place]”, the “induction” value with PKA (listed as SEQ ID NO: 43) is reported as “induced the phosphorylation of a single polypeptide”.
As to “QRAHGQDLESLFHQL [GPΔIII/IV/V derived peptide, synthetic peptide representing the C-terminal region of GPΔIII/IV/V]”, the “induction” value in the data set with PKA was “induced the phosphorylation of a single polypeptide”.
